US20120190612A1, “METHODS OF TREATMENT” (CRC FOR ASTHMA AND AIRWAYS LTD., priority 2009, published 2012)

How the values were obtained:
VEGF-D (R&D Systems) = VEGF-D (R&D Systems) (UniProt O43915); test: cell-based or functional assay
HMVEC-LLy cells [1] = test: Tube formation on Matrigel; type: cell-based, human; conditions: 24 hrs, n=2
Experimental: To assess formation of tubular structures, 48 well plates were coated with 130 μL Matrigel® (BD Bioscience), which was solidified at 37° C. over 45 min. 2×10^4 HMVEC-LLy cells in complete EBM-2 (500 μL) were seeded per well and allowed to attach for 30 min, before lamstatin, tumstatin, CP17 or vehicle was added to the wells. Photos were taken with a Kodak Digital Camera every 2 hrs. Tube formation peaked at 24 hrs, at which time tubular structures were further analysed to determine length (in pixels) and number of tubes per high power field (HPF) area (px^2). The HPF was divided in nine regions of equal size and tubes per region were counted. Mean and SEM were calculated and plotted.

HMVEC-LLy cells [2] = test: Migration towards a VEGF-D gradient (FluoroBlok transwell); type: cell-based, human; conditions: 24 hrs
Experimental: FluoroBlok BioCoat 24-well inserts (BD Bioscience) were seeded with 4×10^4 HMVEC-LLy cells in 750 μL DMEM with 0.1% BSA, 1% antibiotics and 25 mM HEPES and incubated for 1 hr. The bottom well was filled with 500 μL medium (as described above) with or without 10 ng/mL VEGF-D (R&D Systems) as well as various concentrations of lamstatin, tumstatin, CP17 or vehicle. Additionally, top wells were loaded with inhibitors to match the bottom well concentration. According to manufacturer's instructions cells were allowed to migrate for 24 hrs before bottom media was removed. Thereafter the underside of the transwell with the migrated cells was washed twice with HANKS buffer and placed in a 4 μg/mL calcein (HANKS) solution for 90 min at 37° C. Signal was read with a bottom read fluorescence microplate reader at 485/515 nm (excitation/emission).

integrin α5 = target: T1, integrin α5 (Homo sapiens, UniProt P05556+P08648); test: Integrin binding of HMVEC-LLy cells on antibody-coated plates; type: cell-based; conditions: lamstatin 10 μg/ml, CP17 5 μM, 1 h
T1 construct: endogenous in cells; host or cells: HMVEC-LLy (human primary lymphatic endothelial cells)
T1 sequence (P08648 42-894 limits assumed): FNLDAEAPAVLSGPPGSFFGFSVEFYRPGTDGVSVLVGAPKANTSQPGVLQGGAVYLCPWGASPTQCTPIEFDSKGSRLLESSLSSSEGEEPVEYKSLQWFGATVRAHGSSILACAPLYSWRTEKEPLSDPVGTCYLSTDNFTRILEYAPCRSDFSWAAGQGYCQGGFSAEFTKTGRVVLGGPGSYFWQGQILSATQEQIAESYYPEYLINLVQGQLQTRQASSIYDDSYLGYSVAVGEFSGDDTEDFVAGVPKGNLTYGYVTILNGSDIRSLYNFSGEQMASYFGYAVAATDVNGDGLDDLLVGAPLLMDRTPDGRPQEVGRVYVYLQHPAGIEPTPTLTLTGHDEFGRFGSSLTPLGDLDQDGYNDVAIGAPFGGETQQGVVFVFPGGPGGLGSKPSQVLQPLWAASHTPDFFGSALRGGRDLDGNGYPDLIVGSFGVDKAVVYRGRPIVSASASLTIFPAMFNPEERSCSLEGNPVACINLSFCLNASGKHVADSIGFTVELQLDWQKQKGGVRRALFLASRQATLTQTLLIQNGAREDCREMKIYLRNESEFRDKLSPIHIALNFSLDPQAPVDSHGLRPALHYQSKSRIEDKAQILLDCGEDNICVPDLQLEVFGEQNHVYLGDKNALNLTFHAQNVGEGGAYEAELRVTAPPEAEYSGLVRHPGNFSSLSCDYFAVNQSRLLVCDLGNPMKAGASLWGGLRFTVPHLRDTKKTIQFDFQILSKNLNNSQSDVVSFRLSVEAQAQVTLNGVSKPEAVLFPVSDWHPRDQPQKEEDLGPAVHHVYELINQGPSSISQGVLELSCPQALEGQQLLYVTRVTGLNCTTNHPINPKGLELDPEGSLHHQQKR
T1 sequence (P08648 895-1049 limits assumed): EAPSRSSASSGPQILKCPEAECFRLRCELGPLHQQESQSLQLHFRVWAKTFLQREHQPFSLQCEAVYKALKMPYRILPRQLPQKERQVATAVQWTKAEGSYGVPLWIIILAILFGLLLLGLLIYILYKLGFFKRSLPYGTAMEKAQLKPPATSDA
T1 sequence (P05556 21-798): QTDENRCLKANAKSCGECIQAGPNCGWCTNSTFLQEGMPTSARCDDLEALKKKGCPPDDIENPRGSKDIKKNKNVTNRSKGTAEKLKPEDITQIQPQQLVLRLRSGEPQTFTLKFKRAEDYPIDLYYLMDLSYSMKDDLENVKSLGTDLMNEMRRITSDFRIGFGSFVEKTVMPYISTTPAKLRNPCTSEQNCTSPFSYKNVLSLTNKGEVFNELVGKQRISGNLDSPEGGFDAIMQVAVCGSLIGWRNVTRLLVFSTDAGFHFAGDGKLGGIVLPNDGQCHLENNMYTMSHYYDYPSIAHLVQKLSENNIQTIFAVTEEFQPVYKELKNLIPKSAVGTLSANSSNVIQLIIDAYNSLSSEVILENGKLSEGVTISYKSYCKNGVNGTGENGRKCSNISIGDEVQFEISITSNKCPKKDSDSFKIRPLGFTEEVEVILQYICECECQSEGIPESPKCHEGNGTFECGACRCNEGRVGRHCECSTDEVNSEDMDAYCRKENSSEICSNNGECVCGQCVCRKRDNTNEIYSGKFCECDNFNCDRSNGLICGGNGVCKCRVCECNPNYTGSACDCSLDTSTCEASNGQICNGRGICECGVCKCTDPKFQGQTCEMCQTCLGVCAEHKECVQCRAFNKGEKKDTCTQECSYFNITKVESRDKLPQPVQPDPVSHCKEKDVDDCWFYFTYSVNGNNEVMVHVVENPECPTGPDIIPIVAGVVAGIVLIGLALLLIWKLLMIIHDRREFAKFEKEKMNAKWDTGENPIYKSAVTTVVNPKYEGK
Experimental: (§1) Antibodies for integrin α5 (MAB1956Z; MAB1953Z), integrin β1 (MAB2253Z) and integrin β3 (MAB1957Z) (all Millipore, USA) were coated to 96 well tissue culture plates (Nunc, USA) at a concentration of 10 μg/mL overnight at 4° C. in sterile coating buffer (50 mM Na2CO3, 50 mM NaHCO3, pH 9.6). Plates then were blocked with sterile 1% BSA/PBS for 1 h at 37° C. and washed twice with EBM-2 MV (Lonza, Basel, Switzerland). MMVEC-LLy cells were carefully removed from culture flasks with non-enzymatic detachment solution (Trevigen, Md., USA) and washed twice with EBM-2 (Lonza, Basel, Switzerland). Volume was adjusted to a cell concentration of 50,000 cells/100 μL and divided into aliquots for treatment with recombinant lamstatin (10 μg/ml), CP17 (5 μM) or vehicle (1 nM EDTA, pH 3.5) only. Cells were then transferred to the antibody-coated plates and incubated for 1 h at 37° C. Wells were then washed with HANKS twice to remove unbound cells and fixed with 4% paraformaldehyde (in PBS) for 15 min at room temperature. Wells thereafter were photographed with an Olypmus CAMEDIA C-4000 camera mounted to an Olympus CK2 microscope. Pictures were divided into 25 segments and cells of 5 center-near quadrants were counted and averaged. […] Using a similar approach, the inventors observed no expression of integrin α4 on the surface of HMVEC-LLy cells (data not shown).

integrin β1 = target: T2, integrin β1 (Homo sapiens, UniProt P05556+P08648); test: as above; type: cell-based; conditions: lamstatin 10 μg/ml, CP17 5 μM, 1 h
T2 construct: endogenous in cells; host or cells: HMVEC-LLy (human primary lymphatic endothelial cells)
T2 sequence (P05556 21-798): as above
T2 sequence (P08648 42-894 limits assumed): as the sequence (P08648 42-894 limits assumed) above
T2 sequence (P08648 895-1049 limits assumed): as the sequence (P08648 895-1049 limits assumed) above
Experimental: as §1

integrin β3 = target: T3, integrin β3 (Homo sapiens, UniProt P05106); test: as above; type: cell-based; conditions: lamstatin 10 μg/ml, CP17 5 μM, 1 h
T3 construct: endogenous in cells; host or cells: HMVEC-LLy (human primary lymphatic endothelial cells)
T3 sequence (P05106 27-788): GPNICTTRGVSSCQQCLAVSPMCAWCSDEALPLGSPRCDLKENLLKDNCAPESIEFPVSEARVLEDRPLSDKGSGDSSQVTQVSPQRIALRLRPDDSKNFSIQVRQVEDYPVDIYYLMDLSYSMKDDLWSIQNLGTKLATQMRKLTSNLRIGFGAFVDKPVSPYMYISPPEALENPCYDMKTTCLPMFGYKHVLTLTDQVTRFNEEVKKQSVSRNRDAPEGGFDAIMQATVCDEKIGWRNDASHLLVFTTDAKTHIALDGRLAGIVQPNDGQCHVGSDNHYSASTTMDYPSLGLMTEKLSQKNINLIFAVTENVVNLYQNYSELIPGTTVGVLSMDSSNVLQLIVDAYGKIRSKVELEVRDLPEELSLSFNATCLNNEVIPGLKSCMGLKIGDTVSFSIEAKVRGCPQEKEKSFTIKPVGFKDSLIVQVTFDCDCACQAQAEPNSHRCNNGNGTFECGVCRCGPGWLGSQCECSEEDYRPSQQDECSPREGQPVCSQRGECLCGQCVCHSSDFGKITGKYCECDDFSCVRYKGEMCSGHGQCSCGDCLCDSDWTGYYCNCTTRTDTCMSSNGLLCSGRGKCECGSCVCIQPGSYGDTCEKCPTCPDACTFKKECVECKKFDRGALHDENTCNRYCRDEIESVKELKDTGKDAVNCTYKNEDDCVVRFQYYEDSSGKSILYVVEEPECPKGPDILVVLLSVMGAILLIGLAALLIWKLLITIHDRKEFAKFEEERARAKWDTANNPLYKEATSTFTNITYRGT
T3 sequence (P06756 31-889 limits assumed, further chain): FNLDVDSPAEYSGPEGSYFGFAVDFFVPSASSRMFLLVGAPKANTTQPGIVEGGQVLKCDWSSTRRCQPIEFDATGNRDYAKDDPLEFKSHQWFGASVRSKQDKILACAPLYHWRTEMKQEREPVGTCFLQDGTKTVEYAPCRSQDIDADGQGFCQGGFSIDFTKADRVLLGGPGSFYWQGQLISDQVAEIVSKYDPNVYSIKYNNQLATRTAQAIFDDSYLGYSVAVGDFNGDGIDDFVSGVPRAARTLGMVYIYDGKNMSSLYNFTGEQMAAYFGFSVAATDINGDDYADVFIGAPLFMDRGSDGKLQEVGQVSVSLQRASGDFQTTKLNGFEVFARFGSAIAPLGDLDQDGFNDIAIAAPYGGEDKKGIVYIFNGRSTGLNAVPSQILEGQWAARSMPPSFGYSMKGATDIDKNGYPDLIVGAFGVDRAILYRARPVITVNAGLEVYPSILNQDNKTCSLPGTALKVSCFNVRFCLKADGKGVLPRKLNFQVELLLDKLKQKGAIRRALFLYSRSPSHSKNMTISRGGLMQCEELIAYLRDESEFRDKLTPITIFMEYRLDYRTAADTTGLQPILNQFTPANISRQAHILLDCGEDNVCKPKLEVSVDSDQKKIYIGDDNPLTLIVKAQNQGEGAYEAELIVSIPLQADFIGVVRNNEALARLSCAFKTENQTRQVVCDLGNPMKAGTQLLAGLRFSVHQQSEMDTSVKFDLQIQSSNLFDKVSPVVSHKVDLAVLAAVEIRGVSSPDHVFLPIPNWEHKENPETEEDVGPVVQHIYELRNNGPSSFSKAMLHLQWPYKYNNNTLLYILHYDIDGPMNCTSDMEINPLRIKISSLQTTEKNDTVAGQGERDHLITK
T3 sequence (P06756 891-1048 limits assumed, further chain): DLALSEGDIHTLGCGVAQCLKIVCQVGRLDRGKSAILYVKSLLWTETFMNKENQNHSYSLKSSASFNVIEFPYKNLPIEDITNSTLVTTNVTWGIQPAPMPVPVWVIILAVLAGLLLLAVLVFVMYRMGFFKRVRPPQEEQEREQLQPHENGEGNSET
Experimental: as §1

integrins α5 and β1 = target: T4, integrins α5 and β1 (Homo sapiens, UniProt P05556+P08648); test: Integrins mediating binding of lymphatic endothelial cells (data not shown); type: cell-based; conditions: HMVEC-LLy in vitro, different from HUVECs
T4 construct: endogenous in cells; host or cells: HMVEC-LLy (human primary lymphatic endothelial cells)

[3] = tested on: lung adenocarcinoma cells (LNM35 AAV-GFP); test: Mouse ear tumour plug model of tumour-induced lymphangiogenesis; type: in vivo; conditions: lamstatin 10 or 100 μg/mL; CP17 5 or 50 μA; vs vehicle
Experimental: A mouse ear tumour plug model was utilized in which green fluorescent protein (GFP)-tagged lung adenocarcinoma cells (LNM35 AAV-GFP) were injected between the two layers of skin of the ears of NOD/SCID mice. 1×10^6 tumour cells were embedded in […] growth factor free Matrigel® medium enriched with vehicle (1 nM EDTA, pH3.0) or lamstatin at either 10 μg/mL or 100 μg/mL. Mice were divided into three groups.
Group 1 (n=9): One ear of each mouse injected with tumour cells+10 μg/mL lamstatin; the other ear injected with tumour cells+vehicle control. Group 2 (n=9): One ear of each mouse injected with tumour cells+100 μg/mL lamstatin; the other ear injected with tumour cells+vehicle control. Group 3 (n=3): Each ear injected with Matrigel® only.
Injections were single shots such that at least 25 μL was injected. 12 days after injection were sacrificed by anesthetisation and cervical dislocation. Ears were removed for whole mount staining. Flaps of skin from each ear were carefully separated, fixed and stained for either the lymphatic endothelial cell specific marker LyVe-1 (rabbit polyclonal anti-LyVe-1 antibody detected using anti-rabbit Alexafluor 647) or the vascular endothelial cell specific marker PECAM (CD31 rat anti-mouse antibody clone MEC13.3 (Pharmingen), detected with […]). Tumour cells were visualised by detection of GFP expression. Images of representative regions of ears were obtained using a confocal microscope and LyVe-1 or PECAM staining was quantified.
Using the LyVe-1 whole mount stained mouse ear sections, the inventors further investigated the morphology of lymphatic vessel formation. Specifically confocal images were loaded into Image J software (www.sbweb.nih.gov/ij/), a 5×5 grid overlayed and vessels examined for branching and looping. The functionality of a lymphatic network is based on its maturity and in general it is accepted that a tumour induces a rather immature network formation. Reconnecting vessels (measured as loops) and increased branching (measured as branches) are signs of immature vessels induced by, for example, a tumour (see for example Shayan et al. Growth Factors 25, 417-425, 2007).
Branches were defined as two clearly distinguishable vessels that separate out without rejoining. Loops were defined as small, circular vessel structures in the same focal plane. Branches or loops were counted separately per image and mean values were calculated for each treatment group.

[4] = tested on: human primary lymphatic endothelial cells (HMVEC-LLy cells); test: MTT cell viability assay, lymphatic endothelial cells; type: cell-based; conditions: 24 hrs, data not shown
Experimental: To determine the function of lamstatin, human primary lymphatic endothelial cells (HMVEC-LLy cells) were exposed to various concentrations of lamstatin and an MTT assay was performed. As a comparison, commercially available tumstatin was used. Specifically, to assess cell viability 4×10^3 HMVEC-LLy cells were seeded per well in 100 μl complete EBM-2 media (with bullet kit, Lonza) and incubated for 2 hrs at 37° C., 5% CO2. After this period lamstatin, tumstatin and respective vehicles (1 nM EDTA, pH 3.0) were prepared in complete EBM-2 as serial dilutions in a separate plate and added. […] After 6 h of further incubation cells were lysed overnight with 10% SDS/0.01 M HCl and measured the following day in a plate reader at 570 nm.
The MTT assay was performed as described above.

LAM nodule cells = test: MTT cell viability assay, LAM nodule cells; type: cell-based; conditions: intermediate layer, centre and outer nodule cells, 72 hrs
Experimental: To determine the function of lamstatin, human primary lymphatic endothelial cells (HMVEC-LLy cells) were exposed to various concentrations of lamstatin and an MTT assay was performed. As a comparison, commercially available tumstatin was used. Specifically, to assess cell viability 4×10^3 HMVEC-LLy cells were seeded per well in 100 μl complete EBM-2 media (with bullet kit, Lonza) and incubated for 2 hrs at 37° C., 5% CO2. After this period lamstatin, tumstatin and respective vehicles (1 nM EDTA, pH 3.0) were prepared in complete EBM-2 as serial dilutions in a separate plate and added. Cells were grown for 24 hrs before MTT (1 mg/mL in PBS) was added. After 6 h of further incubation cells were lysed overnight with 10% SDS/0.01 M HCl and measured the following day in a plate reader at 570 nm.
The inventors isolated lung cells from a LAM patient, which cells originated from the LAM nodules. These cells were termed according to their location within the nodule, as intermediate layer in the nodule, centre cells and outer nodule cells. These cells were then treated with lamstatin or tumstatin and cell viability measured after 72 hrs. The MTT viability assay was performed as described above in Example 1.

“VEGFD specific blocking fusion receptor (R3-FC) (Fc fusion)” was tested, and the migration of HMVEC-LLy towards a VEGFD gradient after 24 hrs (RFU) (VEGF-D (R&D Systems)) was under 15000 RFU.

“VCNFASRNDYSYWLSTP (listed as Homo sapiens) [CP17]” was tested, and the “numbers of tube-like structures formed” value (HMVEC-LLy cells [1]) was “reduce in a concentration related manner”, the “migration towards a VEGFD gradient” value (HMVEC-LLy cells [2]; n=1, VEGFD alone 42.000 RFU) was “the same effect was not observed” and the “cell binding in presence of monoclonal antibody against integrin α5” value (integrin α5) was “significantly inhibited cell binding”. The “cell binding in presence of monoclonal antibody against integrin β1” value (integrin β1) was “significantly inhibited cell binding”, the “cell binding in presence of monoclonal antibody against integrin β3” value (integrin β3) was “no effect on binding” and the “predominant integrins that mediate the binding of lymphatic endothelial cells” value (integrins α5 and β1) was “integrins α5 and β1”. For the same molecule, the “number of branches of lymphatic vessels” value [3] was “significantly reduced” and the “number of loops of lymphatic vessels” value [3] was “significantly reduced”.

B1: tumstatin: NC1 domain of the α3 chain of collagen type IV; human sequence SEQ ID NO:3; commercially available tumstatin was used (protein, listed as Homo sapiens)
chain: GFVFTRHSQTTAIPSCPEGTVPLYSGFSFLFVQGNQRAHGQDLGTLGSCLQRFTTMPFLFCNVNDVCNFASRNDYSYWLSTPALMPMNMAPITGRALEPYISRCTVCEGPAIAIAVHSQTTDIPPCPHGWISLWKGFSFIMFTSAGSEGTGQALASPGSCLEEFRASPFLECHGRGTCNYYSNSYSFWLASLNPERMFRKPIPSTVKAGELEKIISRCQVCMKKRH
In the case of B1, the “cell viability (MTT)” value [4] is reported as “lamstatin only”, the “numbers of tube-like structures formed” value (HMVEC-LLy cells [1]) is reported as “reduce in a concentration related manner” and the “predominant integrins that mediate the binding of lymphatic endothelial cells” value (integrins α5 and β1) is reported as “integrins α5 and β1”. The “reduction of cell viability (MTT)” value (LAM nodule cells) was “effective in reducing cell viability at higher concentrations”.

B2: VEGFD: growth factor (R&D Systems) used as chemoattractant gradient for lymphatic endothelial cells (protein)
chain: FYDIETLKVIDEEWQRTQCSPRETCVEVASELGKSTNTFFKPPCVNVFRCGGCCNEESLICMNTSTSYISKQLFEISVPLTSVPELVPVKVANHTGCKCLPTAPRHPYS
In the case of B2, the “migration of lymphatic endothelial cells towards VEGFD” value (HMVEC-LLy cells [2]; increasing concentrations of VEGFD) is reported as “attract lymphatic endothelial cells in a concentration related manner”.
